The values below come from the supplement of paper PMC7877785.

The nature of this data set: self-splicing fitness, log relative to wild type (ln ratio); higher = more splicing; Tetrahymena group I intron in knt gene, E. coli kanamycin selection, DiMSum; sequences stand for … in CUCUCU…GGAGGGAAAAGUUAUCAGGCAUGCACCUGGUAGCUAGUCUUUAAACCAAUAGAUUGCAUCGGUUUAAAAGGCAAGACCGUCAAAUUGCGGGAAAGGGGUCAACAGCCGUUCAGUACCAAGUCUCAGGGGAAACUUUGAGAUGGCCUUGCAAAGGGUAUGGUAAUAAGCUGACGGACAUGGUCCUAACCACGCAGCCAAGUCCUAAGUCAACAGAUCUUCUGUUGAUAUGGAUGCAGUUCACAGACUAAAUGUCGGUCGGGGAAGAUGUAUUCUUCUCAUAAGAUAUAGUCGGACCUCUCCUUAAUGGGAGCUAGCGGAUGAAGUGAUGCAACACUGGAGCCGCUGGGAACUAAUUUGUAUGCGAAAGUAUAUUGAUUAGUUUUGGAGUACUCGUGGUCG
The essentials:
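Six replicate transformations of E. coli BL21(DE3) with a pET-22b(+) library were grown overnight at 37°C or 30°C. The library randomised all eight P1ex-region intron nucleotides, the intron lying in the knt kanamycin-resistance gene, and plates were LB agar with or without 25 μg/mL kanamycin plus 100 μg/mL carbenicillin, 50 μM IPTG and 0.2% rhamnose. Pooled colonies were amplicon-sequenced on an Illumina HiSeq 2500, and fitness is the DiMSum error-weighted combination of wild-type-normalised replicate fold changes, kanamycin versus none.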

± gives the uncertainty stated by the source.

As to UUUAAGCAAUAUUACGCCGA, the “self-splicing fitness (ln)” value runs as follows: (30 °C) -0.292 ± 0.13; (37 °C) 0.0683 ± 0.15.

UCCAAGCAAUAUUACGGUUG: the “self-splicing fitness (ln)” value is, setting by setting: (30 °C) -3.43 ± 0.13; (37 °C) -3.04 ± 0.19.

As to GAUAAGCAAUAUUACGCCGA, the “self-splicing fitness (ln)” value is, setting by setting: (30 °C) -2.01 ± 0.18; (37 °C) -1.14 ± 0.22.

AGUUAGCAAUAUUACGGCAG: the “self-splicing fitness (ln)” value is -0.102 ± 0.13 (30 °C) and -1.48 ± 0.21 (37 °C).

For CCCUAGCAAUAUUACGGGCU, the “self-splicing fitness (ln)” value was -4.04 ± 0.25 (30 °C) and -2.71 ± 0.18 (37 °C).

As to UGAUAGCAAUAUUACGGAUC, the “self-splicing fitness (ln)” value by setting is: (30 °C) -2.86 ± 0.22; (37 °C) -2.13 ± 0.3.

Turning to AAUUAGCAAUAUUACGAUUG, the “self-splicing fitness (ln)” value is, setting by setting: (30 °C) -2.58 ± 0.2; (37 °C) -1.14 ± 0.22.

As to AUCGAGCAAUAUUACGUUGG, the “self-splicing fitness (ln)” value runs as follows: (30 °C) -4.07 ± 0.42; (37 °C) -2.37 ± 0.31.

CUAGAGCAAUAUUACGAUUA: the “self-splicing fitness (ln)” value is -2.49 ± 0.23 (30 °C) and -2.26 ± 0.23 (37 °C).

With CCGCAGCAAUAUUACGGCGG, the “self-splicing fitness (ln)” value runs as follows: (30 °C) -4.17 ± 0.22; (37 °C) -3.33 ± 0.26.

On to ACUCAGCAAUAUUACGACGC, for which the “self-splicing fitness (ln)” value is -0.134 ± 0.074 (30 °C) and 0.447 ± 0.088 (37 °C).

ACAUAGCAAUAUUACGGCAG: the “self-splicing fitness (ln)” value runs as follows: (30 °C) -1.29 ± 0.11; (37 °C) -0.918 ± 0.16.

In the case of GAAUAGCAAUAUUACGCCCG, the “self-splicing fitness (ln)” value (30 °C) was -1.28 ± 0.18 and the “self-splicing fitness (ln)” value (37 °C) was -0.828 ± 0.23.

Take CGAUAGCAAUAUUACGAACU: the “self-splicing fitness (ln)” value by setting is: (30 °C) -0.913 ± 0.097; (37 °C) -0.465 ± 0.13.

Consider GCAUAGCAAUAUUACGUCUC, for which the “self-splicing fitness (ln)” value by setting is: (30 °C) -1.85 ± 0.14; (37 °C) -0.552 ± 0.11.

Regarding ACGUAGCAAUAUUACGCUCU, the “self-splicing fitness (ln)” value reads like this: (30 °C) -0.479 ± 0.12; (37 °C) -0.414 ± 0.15.

Consider CGGCAGCAAUAUUACGCCGG, for which the “self-splicing fitness (ln)” value was -2.15 ± 0.17 (30 °C) and -2.16 ± 0.23 (37 °C).

For the sequence AUACAGCAAUAUUACGGGAG, the “self-splicing fitness (ln)” value was -3.35 ± 0.15 (30 °C) and -2.12 ± 0.13 (37 °C).

Turning to ACUCAGCAAUAUUACGUAAC, the “self-splicing fitness (ln)” value runs as follows: (30 °C) -2.79 ± 0.14; (37 °C) -1.2 ± 0.16.

With AUGAAGCAAUAUUACGCGCC, the “self-splicing fitness (ln)” value is, setting by setting: (30 °C) -0.426 ± 0.085; (37 °C) -0.127 ± 0.11.

With CCGUAGCAAUAUUACGUAGU, the “self-splicing fitness (ln)” value by setting is: (30 °C) -3.13 ± 0.19; (37 °C) -3.05 ± 0.33.

Consider GCCAAGCAAUAUUACGAGUG, for which the “self-splicing fitness (ln)” value was -2.32 ± 0.087 (30 °C) and -1.72 ± 0.093 (37 °C).

With UGGUAGCAAUAUUACGUGCU, the “self-splicing fitness (ln)” value is, setting by setting: (30 °C) -2 ± 0.13; (37 °C) -1.18 ± 0.16.

For the sequence GCGGAGCAAUAUUACGGUAG, the “self-splicing fitness (ln)” value (30 °C) was -2.77 ± 0.23.

Take GUGAAGCAAUAUUACGGCGA: the “self-splicing fitness (ln)” value (30 °C) came to 0.0822 ± 0.15 and the “self-splicing fitness (ln)” value (37 °C) amounted to 0.297 ± 0.18.

As to GCGUAGCAAUAUUACGGUCG, the “self-splicing fitness (ln)” value reads like this: (30 °C) -0.963 ± 0.16; (37 °C) -1.07 ± 0.27.

On to AACCAGCAAUAUUACGCCCU, for which the “self-splicing fitness (ln)” value (30 °C) worked out at 0.309 ± 0.089 and the “self-splicing fitness (ln)” value (37 °C) was -0.381 ± 0.13.

As for UGCGAGCAAUAUUACGAGCG, the “self-splicing fitness (ln)” value reads like this: (30 °C) -2.92 ± 0.33; (37 °C) -2.07 ± 0.3.

Turning to AAACAGCAAUAUUACGUAUA, the “self-splicing fitness (ln)” value reads like this: (30 °C) -3 ± 0.14; (37 °C) -1.27 ± 0.12.

CUCAAGCAAUAUUACGGCCU: the “self-splicing fitness (ln)” value reads like this: (30 °C) -4.43 ± 0.39; (37 °C) -2.53 ± 0.32.

On to AUUUAGCAAUAUUACGUGCA, for which the “self-splicing fitness (ln)” value was -1.05 ± 0.11 (30 °C) and -0.306 ± 0.16 (37 °C).

In the case of AGUUAGCAAUAUUACGGGCC, the “self-splicing fitness (ln)” value by setting is: (30 °C) -2.24 ± 0.21; (37 °C) -1.61 ± 0.18.

Consider GCUCAGCAAUAUUACGCAUC, for which the “self-splicing fitness (ln)” value reads like this: (30 °C) -0.653 ± 0.079; (37 °C) -0.186 ± 0.087.

Consider CAAGAGCAAUAUUACGAUAG, for which the “self-splicing fitness (ln)” value is -1.53 ± 0.11 (30 °C) and -0.239 ± 0.13 (37 °C).

With AUCAAGCAAUAUUACGUAAC, the “self-splicing fitness (ln)” value runs as follows: (30 °C) -2.98 ± 0.16; (37 °C) -2.18 ± 0.19.

For UUAAAGCAAUAUUACGUGCU, the “self-splicing fitness (ln)” value is -1.16 ± 0.082 (30 °C) and -0.057 ± 0.12 (37 °C).

On to GUCUAGCAAUAUUACGAAAU, for which the “self-splicing fitness (ln)” value was found to be 0.0935 ± 0.11 (30 °C) and 0.4 ± 0.1 (37 °C).

As for CUCGAGCAAUAUUACGGAAC, the “self-splicing fitness (ln)” value by setting is: (30 °C) -3.24 ± 0.24; (37 °C) -1.98 ± 0.25.
